Legend:
BxPC-3 = assay: ADCC of hRS7-ADCs vs hRS7 IgG; type: cell-based, human; settings: 33.3 nM; effector to target ratio 100:1
Procedure: The ADCC activity of various hRS7-ADC conjugates was determined in comparison to hRS7 IgG (FIG. 3). PBMCs were purified from blood purchased from the Blood Center of New Jersey. A Trop-2-positive human pancreatic adenocarcinoma cell line (BxPC-3) was used as the target cell line with an effector to target ratio of 100:1. […] All were used at 33.3 nM.

[1] = system: SK-MES-1 human squamous cell lung tumors; assay: SK-MES-1 xenograft therapy; type: in vivo, nude mice; settings: 0.4 mg/kg; 28 days
[2] = target: T1, human neonatal receptor (FcRn) (Homo sapiens, UniProt P55899); assay: surface plasmon resonance binding (BIACORE); settings: three independent runs
T1 construct: made in house
T1 sequence (P55899 24-297 limits assumed): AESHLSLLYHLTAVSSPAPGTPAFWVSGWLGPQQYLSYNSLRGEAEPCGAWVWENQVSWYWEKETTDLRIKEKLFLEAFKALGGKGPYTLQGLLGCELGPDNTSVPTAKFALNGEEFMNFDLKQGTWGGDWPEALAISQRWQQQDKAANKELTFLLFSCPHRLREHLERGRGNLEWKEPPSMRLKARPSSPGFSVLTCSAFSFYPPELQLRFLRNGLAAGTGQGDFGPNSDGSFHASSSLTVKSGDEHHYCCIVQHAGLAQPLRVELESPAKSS
T1 sequence (P61769 21-119 partner): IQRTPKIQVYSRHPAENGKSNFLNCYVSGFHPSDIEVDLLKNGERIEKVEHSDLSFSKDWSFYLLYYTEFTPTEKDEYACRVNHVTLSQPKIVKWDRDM
Procedure: (§1) Briefly, rhTrop-2/TACSTD2 (Sino Biological, Inc.) or recombinant human neonatal receptor (FcRn), produced as described (Wang et al., 2011, Drug Metab Dispos 39:1469-77), was immobilized with an amine coupling kit (GE Healthcare; Cat. No. BR-1000-50) on a CM5 sensor chip (GE Healthcare; Cat. #BR-1000-12) following manufacturer's instructions for a low-density chip. […] Each set would make up a separate run on the BIACORE (BIACORE-X; Biacore Inc., Piscataway, N.J.) and data were analyzed using BIAevaluation Software (Biacore Inc., v4.1). Analysis was performed with a 1:1 (Langmuir) Binding Model and Fit, using all five concentration points for each sample run to determine the best fit (lowest χ^2 value). The KD value was calculated using the formula KD=kd1/ka1, where kd1 is the dissociation rate-constant and ka1 is the association-rate constant.

rhTrop-2/TACSTD2 = target: T2, rhTrop-2/TACSTD2 (Homo sapiens, UniProt P09758); assay: surface plasmon resonance binding (BIACORE); settings: three independent runs
T2 construct: purchased Sino Biological, Inc
T2 sequence (P09758 27-323): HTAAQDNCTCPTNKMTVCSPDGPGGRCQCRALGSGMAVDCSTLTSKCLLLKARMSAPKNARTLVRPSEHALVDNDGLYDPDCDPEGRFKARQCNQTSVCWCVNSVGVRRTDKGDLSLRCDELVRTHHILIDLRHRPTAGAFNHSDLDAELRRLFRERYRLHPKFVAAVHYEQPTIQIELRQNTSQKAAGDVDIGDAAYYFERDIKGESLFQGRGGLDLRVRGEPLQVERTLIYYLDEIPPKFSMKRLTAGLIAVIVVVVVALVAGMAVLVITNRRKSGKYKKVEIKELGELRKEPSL
Procedure: as §1

CDC activity = type: cell-based
colorectal cancer = assay: Phase I/II clinical trial of IMMU-132, CRC; type: in vivo, human
[3] = system: non-small cell lung cancer; assay: Phase I/II clinical trial of IMMU-132, NSCLC; type: in vivo, human
Procedure: Out of 29 patients, there were 8 PR and 13 SD. […] The median time to progression was […], with a range from 1.8 to 15.5+ months and 47% of patients still undergoing treatment. Median PFS was 3.4 months at 8 mg/kg and 3.8 months at 10 mg/kg. However, studies are still ongoing and the median progression-free survival numbers are likely to improve.

[4] = system: metastatic pancreatic cancer; assay: Phase I/II clinical trial of IMMU-132, PDC; type: in vivo, human
urothelial cancer = assay: Phase I/II clinical trial of IMMU-132, urothelial; type: in vivo, human; settings: 11 assessable patients, 8 or 10 mg/kg
[5] = system: stage IV metastatic gastric cancer; assay: therapy of a gastric cancer patient; type: in vivo, human; settings: after another 5 courses
[6] = Phase I/II clinical trial of IMMU-132, pharmacokinetics; settings: for serum hRS7 IgG, Max / serum hRS7 IgG, Min / serum intact ADC, Max / serum intact ADC, Min / serum hRS7 IgG, Mean / serum intact ADC, Mean: 0.5 h after first dose
Procedure: SN-38 was measured by HPLC.
Blood samples were taken within ˜30 min from the end of the infusion (e.g., peak) and then prior to each subsequent injection (e.g., trough). […] Serum samples from seven patients also were assayed for SN-38 content, both total (representing SN-38 bound to the IgG and free) and free SN-38 (i.e., unbound SN-38).

HCC1806 (Trop-2+) = assay: dsDNA breaks, rH2AX flow cytometry; type: cell-based, human; settings: untreated baseline 168
[7] = system: Capan-1 human pancreatic cancer xenografts; settings: 1 and 6 h
[8] = system: NCI-N87 human gastric tumors; assay: NCI-N87 xenograft therapy (FIG. 23); settings: 0.35 mg twice weekly for four weeks

**Q.** Which “specific lysis (ADCC)” value (BxPC-3) does the source give for hRS7 IgG here?
**A.** 8.5%

**Q.** What about the “tumor volume (TV)” value [1] of the same substance?
**A.** 1.30±1.08 cm^3

**Q.** What about the Kd [2] of the same substance?
**A.** 92.4 ± 5.7 nM

**Q.** And the Kd (rhTrop-2/TACSTD2)?
**A.** 0.51 ± 0.04 nM

**Q.** And the CDC activity (CDC activity)?
**A.** no CDC activity

**Q.** For IMMU-132, which PD (colorectal cancer; of 18 assessable patients) is on record?
**A.** 6

**Q.** And the PR (colorectal cancer; of 18 assessable patients)?
**A.** 1

**Q.** What about the “maximum reduction in target lesions” value (colorectal cancer; person, after 10 months) of the same substance?
**A.** 65%

**Q.** What about the “plasma CEA after treatment” value (colorectal cancer; person, from 781 ng/mL) of the same substance?
**A.** 26.5 ng/mL

**Q.** And the PD ([3]; of 5 assessable patients)?
**A.** 1

**Q.** And the PR ([3]; of 5 assessable patients)?
**A.** 1

**Q.** What about the PR ([3]; out of 29 patients, 8 or 10 mg/kg) of the same substance?
**A.** 8

**Q.** And the “primary target lesion at first CT” value ([3]; person, from 5.6 cm, after 6 doses)?
**A.** 3.2 cm

**Q.** And the “decrease in serum CA19-9 titers” value ([4]; 3 patients with stable disease)?
**A.** 23 to 72%

**Q.** And the “duration of stable disease, range” value ([4]; 8 patients)?
**A.** 8 to 21.4 wks

**Q.** And the stable disease ([4]; 13 CT-assessable PDC patients)?
**A.** 62%

**Q.** And the “median TTP / duration of SD” value ([4]; CT-assessable PDC patients, 8.0 weeks in last prior therapy)?
**A.** 12.7 wks

**Q.** And the “TTP, range” value ([4]; PDC patients)?
**A.** 2 to 21.4 wks

**Q.** What about the “time to progression, range” value ([4]; Phase I, N=7) of the same substance?
**A.** 1.0 to 4.0 months

**Q.** And the “median TTP” value ([4]; all 14 PDC patients)?
**A.** 11.9 wks

**Q.** What about the PR (urothelial cancer) of the same substance?
**A.** 6

**Q.** And the “disease reduction by RECIST at follow-up” value [5]?
**A.** about 35%

**Q.** And the “serum hRS7 IgG, Max” value ([6]; 8 mg/kg)?
**A.** 249.0 µg/mL

**Q.** And the “serum hRS7 IgG, Min” value ([6]; 8 mg/kg)?
**A.** 96.0 µg/mL

**Q.** What about the “serum intact ADC, Max” value ([6]; 8 mg/kg) of the same substance?
**A.** 169.3 µg/mL

**Q.** What about the “serum intact ADC, Min” value ([6]; 8 mg/kg) of the same substance?
**A.** 95.0 µg/mL

**Q.** And the “serum hRS7 IgG, Mean” value ([6]; 8 mg/kg, N 7)?
**A.** 193.1 µg/mL

**Q.** What about the “serum intact ADC, Mean” value ([6]; 8 mg/kg, N 7) of the same substance?
**A.** 141.5 µg/mL

**Q.** What about the “serum hRS7 IgG, Max” value ([6]; 10 mg/kg) of the same substance?
**A.** 285.85 µg/mL

**Q.** What about the “serum hRS7 IgG, Min” value ([6]; 10 mg/kg) of the same substance?
**A.** 152.00 µg/mL

**Q.** What about the “serum intact ADC, Max” value ([6]; 10 mg/kg) of the same substance?
**A.** 237.39 µg/mL

**Q.** What about the “serum intact ADC, Min” value ([6]; 10 mg/kg) of the same substance?
**A.** 144.00 µg/mL

**Q.** And the “serum hRS7 IgG, Mean” value ([6]; 10 mg/kg, N 5)?
**A.** 203.35 µg/mL

**Q.** And the “serum intact ADC, Mean” value ([6]; 10 mg/kg, N 5)?
**A.** 185.77 µg/mL

**Q.** And the “serum hRS7 IgG, Max” value ([6]; 12 mg/kg)?
**A.** 400.0 µg/mL

**Q.** What about the “serum hRS7 IgG, Min” value ([6]; 12 mg/kg) of the same substance?
**A.** 168.9 µg/mL

**Q.** And the “serum intact ADC, Max” value ([6]; 12 mg/kg)?
**A.** 311.0 µg/mL

**Q.** What about the “serum intact ADC, Min” value ([6]; 12 mg/kg) of the same substance?
**A.** 98.0 µg/mL

**Q.** What about the “serum hRS7 IgG, Mean” value ([6]; 12 mg/kg, N 9) of the same substance?
**A.** 239.2 µg/mL

**Q.** And the “serum intact ADC, Mean” value ([6]; 12 mg/kg, N 9)?
**A.** 183.3 µg/mL

**Q.** And the “serum hRS7 IgG, Max” value ([6]; 18 mg/kg)?
**A.** 499.00 µg/mL

**Q.** And the “serum hRS7 IgG, Min” value ([6]; 18 mg/kg)?
**A.** 321.48 µg/mL

**Q.** And the “serum intact ADC, Max” value ([6]; 18 mg/kg)?
**A.** 423.00 µg/mL

**Q.** And the “serum intact ADC, Min” value ([6]; 18 mg/kg)?
**A.** 162.80 µg/mL

**Q.** What about the “serum hRS7 IgG, Mean” value ([6]; 18 mg/kg, N 3) of the same substance?
**A.** 409.16 µg/mL

**Q.** And the “serum intact ADC, Mean” value ([6]; 18 mg/kg, N 3)?
**A.** 258.27 µg/mL

**Q.** And the “SN-38 in serum bound to IgG, peak samples” value ([6]; 30 min after end of infusion)?
**A.** > 96%

**Q.** What about the “SN-38 in serum bound to IgG” value ([6]; HPLC) of the same substance?
**A.** > 95%

**Q.** And the “clearance of conjugate from serum” value ([6]; human, in vivo)?
**A.** ≤ 3 days

**Q.** What about the “SN-38 bound to IgG, peak sample” value ([6]; one patient, 12 mg/kg) of the same substance?
**A.** 4000 ng/mL

**Q.** What about the “free SN-38, 30-min serum” value ([6]; patient 15) of the same substance?
**A.** 88 to 102 ng/mL

**Q.** And the “free SN-38 as share of total SN-38” value ([6]; patient 15)?
**A.** 2.4% to 3.6%

**Q.** What about the “total SN-38, 30-min serum” value ([6]; patient 15, 6th cycle, 6.0 mg/kg) of the same substance?
**A.** 2,381 ng/mL

**Q.** And the “total SN-38, 30-min serum” value ([6]; patient 15, C1D1, 12 mg/kg)?
**A.** 3,930 ng/mL

**Q.** And the “total SN-38, 30-min serum” value ([6]; patient 15, C1D2, 9.0 mg/kg)?
**A.** 2,947 ng/mL

**Q.** What about the “SN-38G share of total SN-38+SN-38G” value ([6]; patient #25, 13.5 mg/kg) of the same substance?
**A.** 11.6%

**Q.** What about the “total SN-38 (acid-hydrolyzed), average” value ([6]; patient #25, 13.5 mg/kg, 11 peak samples) of the same substance?
**A.** 3309.8 ± 601.8 ng/mL

**Q.** And the “SN-38G share of total unbound SN-38+SN-38G” value ([6]; patient #25, 18 mg/kg)?
**A.** 14.4%

**Q.** What about the “free SN-38 (non-hydrolyzed)” value ([6]; patient #25, 18 mg/kg) of the same substance?
**A.** 155.2 ng/mL

**Q.** And the “total SN-38 (acid-hydrolyzed)” value ([6]; patient #25, 18 mg/kg)?
**A.** 5,089 ng/mL

**Q.** And the “intact conjugate in trough samples” value ([6]; serum drawn immediately before next dose)?
**A.** no sacituzumab govitecan could be detected

**Q.** And the “Median fluorescence intensity (rH2AX)” value (HCC1806 (Trop-2+))?
**A.** 546

**Q.** What about the “free SN-38G lower than free SN-38 in serum” value [7] of the same substance?
**A.** 3- to 7 times

**Q.** And the partial responders [8]?
**A.** 6 of 7
